B1: Neisseria meningitidis V1.1 factor H binding protein (V1.1 fHbp), recombinant (natural protein)
chain: GGVAADIGAGLADALTAPLDHKDKGLQSLTLDQSVRKNEKLKLAAQGAEKTYGNGDSLNTGKLKNDKVSRFDFIRQIEVDGQLITLESGEFQVYKQSHSALTAFQTEQIQDSEHSGKMVAKRQFRIGDIAGEHTSFDKLPEGGRATYRGTAFGSDDAGGKLTYTIDFAAKQGNGKIEHLKSPELNVDLAAADIKPDGKRHAVISGSVLYNQAEKGSYSLGIFGGKAQEVAGSAEVKTVNGIRHIGLAAKQ
notes: source: E. coli BL21(DE3), pET21b, purified (HisTrap, anion exchange)
B2: recombinant CFH6–7 (CCP domains 6 and 7 of complement factor H) (domain or fragment, human)
chain: TLKPCDYPDIKHGGLYHENMRRPYFPVAVGKYYSYYCDEHFETPSGSYWDHIHCTQDGWSPAVPCLRKCYFPYLENGYNQNYGRKFVQGKSIDVACHPGYALPKAQTTVTCMENGWSPTPRCI

Test [1] deals with full-length human CFH (Sigma) (UniProt P08603). Nature of the test: ELISA. The settings on record: read off a plot.
In test [2] the target is Neisseria cinerea CCUG 346T factor H binding protein (V1.110 fHbp), recombinant (Neisseria cinerea). Kind of test: SPR. For orientation: Surface plasmon resonance follows binding to a sensor surface in real time, without labels.
The target of test [3] is T1, full-length human CFH (Sigma) (human, UniProt P08603 19-1231).
T1 construct: also called full-length CFH; source: bought: Sigma
Kind of test: ELISA; plates coated with recombinant fHbp (3 ug/ml); full-length human CFH (Sigma) in 2-fold dilutions from 10 ug/ml; detected with anti-CFH antibody. The settings on record: both partners purified.

The target in test [4] is B1. Nature of the test: SPR. The settings on record: both partners purified.

As usually defined, the Kd is a measure of binding affinity in units of concentration.

With “Neisseria meningitidis V1.1 factor H binding protein (V1.1 fHbp), recombinant (from UniProt Q9JXV4) I311A”, the response is 0.073 OD 450nm in test [1] (CFH 1.25 µg/ml (x position estimated), parent: est. 0.35); 0.082 OD 450nm in test [1] (CFH 2.5 µg/ml, parent: est. 0.40); 0.082 OD 450nm in test [1] (CFH 5 μg/ml, parent: est. 0.40); 0.11 OD 450nm in test [1] (CFH 5 µg/ml, parent: est. 0.41); 0.19 OD 450nm in test [1] (CFH 10 µg/ml, parent: est. 0.47).

As for “recombinant CFH6–7 (CCP domains 6 and 7 of complement factor H) (from UniProt P08603 321-443) (domain or fragment)”, the Kd in test [2] worked out at 3.5 nM.

B1: in test [3], the binding result is “binds”.

For B2, the Kd in test [4] is 3 ± 0.5 nM.
